# Source: US20260248972A1, “DUAL RECEPTOR TARGETING RADIOLIGANDS AND USES THEREOF RELATED APPLICATIONS” (priority 2022, published 2026)
# *1 amine or outer side, *2 acyl side, *3 side chain or, on linkers, in order; H or OH if unused. Where a SMILES comes first, the peptide text is derived from it. Bridges are numbered along the chain shown (N, C = ends). Side-chain parts run from the residue outwards. [ ]: non-standard residue; d: D form. The star is where a group is joined. X1 = CC(C)(C)C(=O)CN1C(=O)[C@H](N*)CN(C2CCCCC2)c2ccccc21; DOTA = O=C(O)CN1CCN(CC(=O)O)CCN(CC(=O)*)CCN(CC(=O)O)CC1; 3Abz = Nc1cccc(C(=O)O)c1; CO = O=C([*:1])[*:2]
# Experiment: in vivo
# Conditions: BALB/c nude, mouse, in vivo, iv, total radioactivity
# Experimental: To a 0.5 M NaOAc buffer (20-50 μL, pH=4.5) was added 4 μL of exemplary or comparator compound in DMSO stock solution (2000 μM) and 2 mCi ^177Lu (ITM Isotope Technologies Munich), the resulting mixture was heated to 95° C. for 15 min. The resulting product was analyzed by radio-TLC and radio-HPLC (column: Shim-pack GIST 5 μm 4.6*150 mm; buffer A: 0.2% formic acid H2O; buffer B: 0.1% formic acid acetonitrile; flow rate: 1 mL/min; gradient: 0-5 min: 10% B to 95% B; then 5-8 min: 95% B). The labelled products were used immediately or diluted by a PBS buffer containing freshly added 3 mg/mL ascorbate.
# All animal care and experimental procedure were performed by following the animal protocols approved by the ethics committee of China Institute of Radiation Protection. The BALB/c nude mice (Charles River, Beijing) were utilized for these studies. Mice were below 5 per cage in sterile, microisolator cages under temperature- and humidity-controlled conditions with a 12 h light/12 h dark schedule and fed irradiated rodent chow and reverse osmosis (RO) sterile water ad libitum. In preparation for tumor cell inoculations, mice were anesthetized with isoflurane (RWD Life Science Inc.) at an induction rate of 4% and maintained at a rate of 2.5% with 0.4 L oxygen delivered via precision vaporizer and a non-rebreathing apparatus. These mice received subcutaneous rear flank injections of approximately 4×10^6 AR42J cells ([…] pancreatic cancer cell line) suspended in 200 μL of phosphate-buffered saline (PBS) and Matrigel (Corning) (1/1). Xenografted tumors were allowed to grow for ~2-4 weeks post-inoculation and ranged in mass from 0.05 to 0.50 g (average tumor size, 0.20 g). […] The mice were euthanized, and the tissues and organs were excised from the animals at 4, 24 and 72 h post-injection. The tissues and organs were weighed, counted in a PerkinElmer 2480 WIZARD2 γ counter, and the percent injected dose (% ID) and % ID/g of each organ or tissue were calculated.
smiles,measurement,setting,value
"C[C@@H](O)[C@H](NC(=O)[C@@H]1CSSC[C@H](NC(=O)[C@@H](Cc2ccccc2)NC(=O)CCOCCOCCOCCNC(=O)[C@H](CCCCNC(=O)c2cccc(NC(=O)N[C@@H]3CN(C4CCCCC4)c4ccccc4N(CC(=O)C(C)(C)C)C3=O)c2)NC(=O)CN2CCN(CC(=O)O)CCN(CC(=O)O)CCN(CC(=O)O)CC2)C(=O)N[C@@H](Cc2ccc(O)cc2)C(=O)N[C@H](Cc2c[nH]c3ccccc23)C(=O)N[C@@H](CCCCN)C(=O)N[C@@H]([C@@H](C)O)C(=O)N1)C(=O)O [Compound I-38, DOTA-K(Z360)-PEG3-f[CYwKTC]T-OH]",tissue to tissue ratio at 24 h,T/K Tumor/Kidney ratio,1.8
same,tissue to tissue ratio at 24 h,T/L Tumor/Liver ratio,6.1
same,tissue to tissue ratio at 24 h,T/P Tumor/Pancreas ratio,18
same,tissue to tissue ratio at 24 h,T/Sp Tumor/Spleen ratio,72
same,tissue to tissue ratio at 24 h,T/St Tumor/Stomach ratio,4.2
same,tissue uptake at 24 h,uptake Kidney,7.9 %ID/g
same,tissue uptake at 24 h,uptake Liver,2.3 %ID/g
same,tissue uptake at 24 h,uptake Pancreas,0.8 %ID/g
same,tissue uptake at 24 h,uptake Spleen,0.2 %ID/g
same,tissue uptake at 24 h,uptake Stomach,3.4 %ID/g
same,tissue uptake at 24 h,uptake Tumor,14.3 %ID/g
"C[C@@H](O)[C@H](NC(=O)[C@@H]1CSSC[C@H](NC(=O)[C@@H](Cc2ccccc2)NC(=O)CNC(=O)[C@H](CO)NC(=O)CNC(=O)[C@H](CCCCNC(=O)c2cccc(NC(=O)N[C@@H]3CN(C4CCCCC4)c4ccccc4N(CC(=O)C(C)(C)C)C3=O)c2)NC(=O)CN2CCN(CC(=O)O)CCN(CC(=O)O)CCN(CC(=O)O)CC2)C(=O)N[C@@H](Cc2ccc(O)cc2)C(=O)N[C@H](Cc2c[nH]c3ccccc23)C(=O)N[C@@H](CCCCN)C(=O)N[C@@H]([C@@H](C)O)C(=O)N1)C(=O)O [Compound I-54, DOTA-K(Z360)-G-S-G-f[CYwKTC]T-OH] ({DOTA}-K([3Abz-CO-X1])GSG[dF]CY[dW]KTCT-OH; disulfide 6-11)",tissue to tissue ratio at 24 h,T/K Tumor/Kidney ratio,2.4
same,tissue to tissue ratio at 24 h,T/L Tumor/Liver ratio,2.7
same,tissue to tissue ratio at 24 h,T/P Tumor/Pancreas ratio,9.7
same,tissue to tissue ratio at 24 h,T/Sp Tumor/Spleen ratio,36
same,tissue to tissue ratio at 24 h,T/St Tumor/Stomach ratio,6.3
same,tissue uptake at 24 h,uptake Kidney,10.5 %ID/g
same,tissue uptake at 24 h,uptake Liver,9.6 %ID/g
same,tissue uptake at 24 h,uptake Pancreas,2.65 %ID/g
same,tissue uptake at 24 h,uptake Spleen,0.71 %ID/g
same,tissue uptake at 24 h,uptake Stomach,4.1 %ID/g
same,tissue uptake at 24 h,uptake Tumor,25.8 %ID/g
"C[C@@H](O)[C@H](NC(=O)[C@@H]1CSSC[C@H](NC(=O)[C@@H](Cc2ccccc2)NC(=O)CCCCCCCNC(=O)[C@H](CCCCNC(=O)c2cccc(NC(=O)N[C@@H]3CN(C4CCCCC4)c4ccccc4N(CC(=O)C(C)(C)C)C3=O)c2)NC(=O)CN2CCN(CC(=O)O)CCN(CC(=O)O)CCN(CC(=O)O)CC2)C(=O)N[C@@H](Cc2ccc(O)cc2)C(=O)N[C@H](Cc2c[nH]c3ccccc23)C(=O)N[C@@H](CCCCN)C(=O)N[C@@H]([C@@H](C)O)C(=O)N1)C(=O)O [Compound I-61, DOTA-K(Z360)-Aoc-f[CYwKTC]T-OH]",tissue to tissue ratio at 24 h,T/K Tumor/Kidney ratio,3.5
same,tissue to tissue ratio at 24 h,T/L Tumor/Liver ratio,0.1
same,tissue to tissue ratio at 24 h,T/P Tumor/Pancreas ratio,16
same,tissue to tissue ratio at 24 h,T/Sp Tumor/Spleen ratio,0.2
same,tissue to tissue ratio at 24 h,T/St Tumor/Stomach ratio,4.5
same,tissue uptake at 24 h,uptake Kidney,1.53 %ID/g
same,tissue uptake at 24 h,uptake Liver,53.3 %ID/g
same,tissue uptake at 24 h,uptake Pancreas,0.34 %ID/g
same,tissue uptake at 24 h,uptake Spleen,28.3 %ID/g
same,tissue uptake at 24 h,uptake Stomach,1.21 %ID/g
same,tissue uptake at 24 h,uptake Tumor,5.41 %ID/g
"C[C@@H](O)[C@H](NC(=O)[C@@H]1CSSC[C@H](NC(=O)[C@@H](Cc2ccccc2)NC(=O)CNC(=O)[C@H](CO)NC(=O)CNC(=O)[C@H](CCCCNC(=O)c2cccc(NC(=O)N[C@@H]3CN(C4CCCCC4)c4ccccc4N(CC(=O)C(C)(C)C)C3=O)c2)NC(=O)CN2CCN(CC(=O)O)CCN(CC(=O)O)CCN(CC(=O)O)CC2)C(=O)N[C@@H](Cc2ccc(O)cc2)C(=O)N[C@H](Cc2c[nH]c3ccccc23)C(=O)N[C@@H](CCCCN)C(=O)N[C@@H]([C@@H](C)O)C(=O)N1)C(=O)O [Compound 177Lu-I-54, metal not drawn] ({DOTA}-K([3Abz-CO-X1])GSG[dF]CY[dW]KTCT-OH; disulfide 6-11)",tissue uptake at 4 h,% ID/g Adrenal gland,2.34 %ID/g
same,tissue uptake at 24 h,% ID/g Adrenal gland,1.64 %ID/g
same,tissue uptake at 72 h,% ID/g Adrenal gland,1.12 %ID/g
same,tissue uptake at 4 h,% ID/g Blood,0.81 %ID/g
same,tissue uptake at 24 h,% ID/g Blood,0.16 %ID/g
same,tissue uptake at 72 h,% ID/g Blood,0.09 %ID/g
same,tissue uptake at 4 h,% ID/g Fat,3.5 %ID/g
same,tissue uptake at 24 h,% ID/g Fat,3.78 %ID/g
same,tissue uptake at 72 h,% ID/g Fat,2.66 %ID/g
same,tissue uptake at 4 h,% ID/g Femur,0.83 %ID/g
same,tissue uptake at 24 h,% ID/g Femur,0.66 %ID/g
same,tissue uptake at 72 h,% ID/g Femur,0.79 %ID/g
same,tissue uptake at 4 h,% ID/g Heart,1.29 %ID/g
same,tissue uptake at 24 h,% ID/g Heart,0.65 %ID/g
same,tissue uptake at 72 h,% ID/g Heart,0.5 %ID/g
same,tissue uptake at 4 h,% ID/g Intestine,2.07 %ID/g
same,tissue uptake at 24 h,% ID/g Intestine,1.56 %ID/g
same,tissue uptake at 72 h,% ID/g Intestine,1.14 %ID/g
same,tissue uptake at 4 h,% ID/g Kidney,20.7 %ID/g
same,tissue uptake at 24 h,% ID/g Kidney,10.5 %ID/g
same,tissue uptake at 72 h,% ID/g Kidney,8.45 %ID/g
same,tissue uptake at 4 h,% ID/g Liver,31.6 %ID/g
same,tissue uptake at 24 h,% ID/g Liver,9.6 %ID/g
same,tissue uptake at 72 h,% ID/g Liver,5.01 %ID/g
same,tissue uptake at 4 h,% ID/g Lung,2.65 %ID/g
same,tissue uptake at 24 h,% ID/g Lung,2.77 %ID/g
same,tissue uptake at 72 h,% ID/g Lung,1.91 %ID/g
same,tissue uptake at 4 h,% ID/g Muscle,0.3 %ID/g
same,tissue uptake at 24 h,% ID/g Muscle,0.21 %ID/g
same,tissue uptake at 72 h,% ID/g Muscle,0.16 %ID/g
same,tissue uptake at 4 h,% ID/g Pancreas,3.91 %ID/g
same,tissue uptake at 24 h,% ID/g Pancreas,2.65 %ID/g
same,tissue uptake at 72 h,% ID/g Pancreas,2.42 %ID/g
same,tissue uptake at 4 h,% ID/g Spleen,1.25 %ID/g
same,tissue uptake at 24 h,% ID/g Spleen,0.71 %ID/g
same,tissue uptake at 72 h,% ID/g Spleen,1.28 %ID/g
same,tissue uptake at 4 h,% ID/g Stomach,4.81 %ID/g
same,tissue uptake at 24 h,% ID/g Stomach,4.1 %ID/g
same,tissue uptake at 72 h,% ID/g Stomach,4.2 %ID/g
same,tissue uptake at 4 h,% ID/g Tumor,30 %ID/g
same,tissue uptake at 24 h,% ID/g Tumor,25.7 %ID/g
same,tissue uptake at 72 h,% ID/g Tumor,19.6 %ID/g
"C[C@@H](O)[C@H](NC(=O)[C@@H]1CSSC[C@H](NC(=O)[C@@H](Cc2ccccc2)NC(=O)[C@H](CCCCNC(=O)c2cccc(NC(=O)N[C@@H]3CN(C4CCCCC4)c4ccccc4N(CC(=O)C(C)(C)C)C3=O)c2)NC(=O)COCCOCCNC(=O)CN2CCN(CC(=O)O)CCN(CC(=O)O)CCN(CC(=O)O)CC2)C(=O)N[C@@H](Cc2ccc(O)cc2)C(=O)N[C@H](Cc2c[nH]c3ccccc23)C(=O)N[C@@H](CCCCN)C(=O)N[C@@H]([C@@H](C)O)C(=O)N1)C(=O)O [Compound I-35, DOTA-OEG-K(Z360)-f[CYwKTC]T-OH]",tissue to tissue ratio at 24 h,T/K Tumor/Kidney ratio,2.9
same,tissue to tissue ratio at 24 h,T/L Tumor/Liver ratio,3.5
same,tissue to tissue ratio at 24 h,T/P Tumor/Pancreas ratio,19
same,tissue to tissue ratio at 24 h,T/Sp Tumor/Spleen ratio,38
same,tissue to tissue ratio at 24 h,T/St Tumor/Stomach ratio,5.8
same,tissue uptake at 24 h,uptake Kidney,6.1 %ID/g
same,tissue uptake at 24 h,uptake Liver,5.06 %ID/g
same,tissue uptake at 24 h,uptake Pancreas,0.96 %ID/g
same,tissue uptake at 24 h,uptake Spleen,0.47 %ID/g
same,tissue uptake at 24 h,uptake Stomach,3.09 %ID/g
same,tissue uptake at 24 h,uptake Tumor,17.8 %ID/g
"C[C@@H](O)[C@H](NC(=O)[C@@H]1CSSC[C@H](NC(=O)[C@@H](Cc2ccccc2)NC(=O)[C@H](CCCCNC(=O)c2cccc(NC(=O)N[C@@H]3CN(C4CCCCC4)c4ccccc4N(CC(=O)C(C)(C)C)C3=O)c2)NC(=O)[C@H](CCCNC(=N)N)NC(=O)CN2CCN(CC(=O)O)CCN(CC(=O)O)CCN(CC(=O)O)CC2)C(=O)N[C@@H](Cc2ccc(O)cc2)C(=O)N[C@H](Cc2c[nH]c3ccccc23)C(=O)N[C@@H](CCCCN)C(=O)N[C@@H]([C@@H](C)O)C(=O)N1)C(=O)O [Compound I-62, DOTA-R-K(Z360)-f[CYwKTC]T-OH] ({DOTA}-RK([3Abz-CO-X1])[dF]CY[dW]KTCT-OH; disulfide 4-9)",tissue to tissue ratio at 24 h,T/K Tumor/Kidney ratio,0.7
same,tissue to tissue ratio at 24 h,T/L Tumor/Liver ratio,0.3
same,tissue to tissue ratio at 24 h,T/P Tumor/Pancreas ratio,6.1
same,tissue to tissue ratio at 24 h,T/Sp Tumor/Spleen ratio,13
same,tissue to tissue ratio at 24 h,T/St Tumor/Stomach ratio,6.4
same,tissue uptake at 24 h,uptake Kidney,14.7 %ID/g
same,tissue uptake at 24 h,uptake Liver,32.4 %ID/g
same,tissue uptake at 24 h,uptake Pancreas,1.78 %ID/g
same,tissue uptake at 24 h,uptake Spleen,0.82 %ID/g
same,tissue uptake at 24 h,uptake Stomach,1.68 %ID/g
same,tissue uptake at 24 h,uptake Tumor,10.8 %ID/g
